Experiments:
[1] = target: T1, Recombinant human HGF R/c-Met Fc chimera (R&D systems, cat no. 358-MT/CF) (human, UniProt P08581 25-932); assay: phage ELISA, c-Met 100 ng coated, anti-M13-HRP detection, A450
T1 construct: Bought reagent; also called human c-Met-Fc; human-c-Met; not shown: Fc part of the purchased chimera

mouse c-Met-Fc [2] = target: T2, mouse c-Met-Fc (mouse, UniProt P16056 25-931, limits assumed); assay: SPR (BIAcore), mouse c-Met-Fc immobilized on chip, antibody flowed
T2 construct: Bought reagent (R&D system); also called mouse-c-Met (R&D system); not shown: Fc part
T2 sequence (P16056 25-931 limits assumed): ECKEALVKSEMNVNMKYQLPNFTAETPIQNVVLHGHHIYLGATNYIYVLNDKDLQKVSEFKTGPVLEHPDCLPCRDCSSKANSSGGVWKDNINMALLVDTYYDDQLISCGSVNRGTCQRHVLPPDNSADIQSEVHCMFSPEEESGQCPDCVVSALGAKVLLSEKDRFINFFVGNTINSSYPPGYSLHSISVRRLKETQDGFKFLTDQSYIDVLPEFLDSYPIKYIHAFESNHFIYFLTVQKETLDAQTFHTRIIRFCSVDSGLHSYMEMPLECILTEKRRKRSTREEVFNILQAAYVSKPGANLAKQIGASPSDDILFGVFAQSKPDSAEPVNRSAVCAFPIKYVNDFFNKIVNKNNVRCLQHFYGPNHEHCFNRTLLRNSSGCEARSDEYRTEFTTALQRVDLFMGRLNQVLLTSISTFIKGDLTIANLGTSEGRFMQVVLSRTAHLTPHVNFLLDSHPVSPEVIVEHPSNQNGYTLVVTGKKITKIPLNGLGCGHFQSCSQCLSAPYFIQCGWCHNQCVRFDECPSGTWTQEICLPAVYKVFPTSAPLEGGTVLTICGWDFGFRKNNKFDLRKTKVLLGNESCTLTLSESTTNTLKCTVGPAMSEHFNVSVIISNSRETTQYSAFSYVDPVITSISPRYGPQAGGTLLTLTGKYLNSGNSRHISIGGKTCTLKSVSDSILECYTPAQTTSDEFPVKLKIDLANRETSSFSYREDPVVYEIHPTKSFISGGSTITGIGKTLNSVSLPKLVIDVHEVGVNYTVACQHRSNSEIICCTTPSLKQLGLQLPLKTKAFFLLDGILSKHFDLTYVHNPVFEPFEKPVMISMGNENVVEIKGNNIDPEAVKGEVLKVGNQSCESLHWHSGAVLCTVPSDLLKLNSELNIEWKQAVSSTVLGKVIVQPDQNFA
Procedure: (§1) The binding capacity to c-Met of the antibody was measured by BIAcore (GE Healthcare). According to the manufacturer's manual, sensorgrams were secured by immobilizing mouse-c-Met and human-c-Met (R&D system) on a CMS chip (GE Healthcare, Sweden), and flowing various amounts of antibodies. Rate constants kon and koff were measured on the basis of the sensorgrams secured at each concentration, and Kd was calculated from the ratio of rate constants (koff/kon) (Table 3). As a result, 1E4-IgG had high binding capacity with mouse-c-Met as well as binding capacity with human-c-Met (FIG. 8).

[3] = target: T1, Recombinant human HGF R/c-Met Fc …; assay: SPR (BIAcore), human c-Met-Fc immobilized on chip, antibody flowed
Procedure: as §1

mouse c-Met-Fc [4] = target: T2, mouse c-Met-Fc; assay: SPR (BIAcore), mouse c-Met-Fc immobilized on chip, antibody flowed; koff/kon
Procedure: as §1

[5] = target: T1, Recombinant human HGF R/c-Met Fc …; assay: SPR (BIAcore), human c-Met-Fc immobilized on chip, antibody flowed; koff/kon
Procedure: as §1

T1 sequence (P08581 25-932, change not shown): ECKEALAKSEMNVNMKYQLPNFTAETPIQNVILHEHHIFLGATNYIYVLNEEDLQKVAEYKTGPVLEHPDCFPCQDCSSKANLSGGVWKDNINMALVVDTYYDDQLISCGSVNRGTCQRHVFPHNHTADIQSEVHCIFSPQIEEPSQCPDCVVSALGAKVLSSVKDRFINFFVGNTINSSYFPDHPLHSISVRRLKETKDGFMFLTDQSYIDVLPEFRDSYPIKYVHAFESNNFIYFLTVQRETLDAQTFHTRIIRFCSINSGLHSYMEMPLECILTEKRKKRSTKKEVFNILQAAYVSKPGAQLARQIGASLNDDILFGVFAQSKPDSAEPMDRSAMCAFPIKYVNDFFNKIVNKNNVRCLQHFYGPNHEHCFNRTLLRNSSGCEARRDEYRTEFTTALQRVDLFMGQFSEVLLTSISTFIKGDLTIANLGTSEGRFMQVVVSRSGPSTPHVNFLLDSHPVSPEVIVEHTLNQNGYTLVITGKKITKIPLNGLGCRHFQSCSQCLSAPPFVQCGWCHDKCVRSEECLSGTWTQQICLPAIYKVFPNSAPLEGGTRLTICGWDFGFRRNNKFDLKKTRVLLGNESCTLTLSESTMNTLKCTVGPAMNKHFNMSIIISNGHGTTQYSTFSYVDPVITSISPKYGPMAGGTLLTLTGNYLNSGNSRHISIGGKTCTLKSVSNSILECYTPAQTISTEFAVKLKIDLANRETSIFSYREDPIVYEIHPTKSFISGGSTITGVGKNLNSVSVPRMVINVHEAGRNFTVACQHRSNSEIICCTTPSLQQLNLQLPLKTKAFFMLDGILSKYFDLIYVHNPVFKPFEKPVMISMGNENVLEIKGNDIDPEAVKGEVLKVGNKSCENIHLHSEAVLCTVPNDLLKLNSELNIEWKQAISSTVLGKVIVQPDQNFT

Binder | binding result [1] | koff (mouse c-Met-Fc [2]) [s⁻¹] | kon (mouse c-Met-Fc [2]) [M⁻¹ s⁻¹] | koff [3] [s⁻¹] | kon [3] [M⁻¹ s⁻¹] | Kd (mouse c-Met-Fc [4]) [nM] | Kd [5] [nM]
1E4-ScFv (scFv, also called soluble 1E4-ScFv; not shown: tags implied by Ni-NTA purification and anti-Myc detection) scFv: QVQLVQSGAEVKKPGESLRISCQGSGYSFPTHWITWVRQMPGKGLEWMGTIDPTDSYNFYGPSFQGHVTISADSSSSTAYLQWSSLKASDTAMYYCARDGNYYDSRGYYYDTFDMWGQGTLVTVSSGLGGLGGGGSGGGGSGGSSGVGSDIQMTQSPSFLSASVGDRVTITCRASQGISTYLAWYQQKPGTAPKLLIYSASTLESGVPSRFSGSGSGTDFTLTISSLQPEDSATYYCQQADSFPLTFGGGTKVEIKRGGASLVE | binds |  |  |  |  |  | 
1E4-IgG (antibody, V domains shown, also called 1E4 antibody; anti-c-Met IgG (1E4-IgG)) VH: QVQLVQSGAEVKKPGESLRISCQGSGYSFPTHWITWVRQMPGKGLEWMGTIDPTDSYNFYGPSFQGHVTISADSSSSTAYLQWSSLKASDTAMYYCARDGNYYDSRGYYYDTFDMWGQGTLVTVSS VL: DIQMTQSPSFLSASVGDRVTITCRASQGISTYLAWYQQKPGTAPKLLIYSASTLESGVPSRFSGSGSGTDFTLTISSLQPEDSATYYCQQADSFPLTFGGGTKVEIKR |  | 0.00159 | 2.58e+06 | 0.000807 | 2.71e+06 | 0.615 | 0.298

— patent US20170233492A1 (PHARMABCINE, published 2017)
